From PMC7238552 (Cell, 2020) come the findings set out here.

The target of experiment [1] is human integrin αvβ8 ectodomain (for structural studies) (Homo sapiens, UniProt P06756;P26012). Kind of experiment: cryo-EM structure.
Experiment [2] addresses recombinant integrin αvβ3 (R&D Systems) (Homo sapiens (assumed), UniProt P06756;P05106). Kind of experiment: ELISA.
In experiment [3] the target is recombinant integrin αvβ5 (R&D Systems) (Homo sapiens (assumed), UniProt P06756;P18084). Briefly: ELISA.
Experiment [4] has as its target recombinant integrin αvβ1 (R&D Systems) (Homo sapiens (assumed), UniProt P06756;P05556). Kind of experiment: ELISA.

Chain of human integrin αvβ8 ectodomain (for structural studies) (P06756 31-992, chain 1 of 2): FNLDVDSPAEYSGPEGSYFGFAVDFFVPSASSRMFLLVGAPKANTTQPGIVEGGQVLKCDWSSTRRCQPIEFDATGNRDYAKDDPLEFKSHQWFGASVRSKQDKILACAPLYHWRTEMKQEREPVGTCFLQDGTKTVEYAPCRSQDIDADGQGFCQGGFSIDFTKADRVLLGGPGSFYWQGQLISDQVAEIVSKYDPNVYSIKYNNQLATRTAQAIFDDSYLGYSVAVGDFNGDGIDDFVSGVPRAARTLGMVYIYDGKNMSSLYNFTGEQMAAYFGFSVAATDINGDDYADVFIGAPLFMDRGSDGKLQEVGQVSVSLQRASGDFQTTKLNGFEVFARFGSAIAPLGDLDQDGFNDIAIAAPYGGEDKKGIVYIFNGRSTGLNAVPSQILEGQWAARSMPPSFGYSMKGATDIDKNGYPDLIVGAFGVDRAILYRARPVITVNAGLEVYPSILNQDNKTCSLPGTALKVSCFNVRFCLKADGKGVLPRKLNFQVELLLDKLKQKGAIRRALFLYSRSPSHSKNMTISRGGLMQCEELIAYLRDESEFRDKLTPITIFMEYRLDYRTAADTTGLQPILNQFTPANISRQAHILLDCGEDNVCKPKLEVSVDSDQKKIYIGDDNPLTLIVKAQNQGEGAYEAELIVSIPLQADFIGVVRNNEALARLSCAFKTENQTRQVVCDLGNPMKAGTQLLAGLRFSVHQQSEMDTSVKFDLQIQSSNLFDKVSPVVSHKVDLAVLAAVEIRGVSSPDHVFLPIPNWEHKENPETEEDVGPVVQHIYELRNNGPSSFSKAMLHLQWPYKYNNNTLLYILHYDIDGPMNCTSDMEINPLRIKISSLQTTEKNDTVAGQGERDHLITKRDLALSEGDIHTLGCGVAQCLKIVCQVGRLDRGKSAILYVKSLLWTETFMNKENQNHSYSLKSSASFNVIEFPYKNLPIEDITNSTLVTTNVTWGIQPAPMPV
Chain of human integrin αvβ8 ectodomain (for structural studies) (P26012 43-684, chain 2 of 2): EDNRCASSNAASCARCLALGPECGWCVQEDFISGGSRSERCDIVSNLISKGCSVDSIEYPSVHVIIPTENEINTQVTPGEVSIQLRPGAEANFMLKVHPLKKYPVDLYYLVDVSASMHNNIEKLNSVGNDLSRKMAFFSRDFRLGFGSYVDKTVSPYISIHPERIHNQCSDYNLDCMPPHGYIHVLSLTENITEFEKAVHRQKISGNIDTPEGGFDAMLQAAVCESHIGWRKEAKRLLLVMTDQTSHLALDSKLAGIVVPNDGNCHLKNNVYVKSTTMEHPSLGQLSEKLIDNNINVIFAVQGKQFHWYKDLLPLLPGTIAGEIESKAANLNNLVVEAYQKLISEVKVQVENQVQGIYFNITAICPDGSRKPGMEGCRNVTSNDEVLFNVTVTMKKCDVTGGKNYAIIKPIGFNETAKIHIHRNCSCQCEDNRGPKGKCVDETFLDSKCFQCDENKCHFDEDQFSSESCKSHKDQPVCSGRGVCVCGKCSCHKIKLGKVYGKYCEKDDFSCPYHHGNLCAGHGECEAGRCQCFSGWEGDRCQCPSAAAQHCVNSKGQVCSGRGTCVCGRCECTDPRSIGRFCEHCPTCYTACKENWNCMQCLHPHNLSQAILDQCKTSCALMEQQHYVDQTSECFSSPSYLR
Chain of recombinant integrin αvβ3 (R&D Systems) (P06756 31-1048, chain 1 of 2): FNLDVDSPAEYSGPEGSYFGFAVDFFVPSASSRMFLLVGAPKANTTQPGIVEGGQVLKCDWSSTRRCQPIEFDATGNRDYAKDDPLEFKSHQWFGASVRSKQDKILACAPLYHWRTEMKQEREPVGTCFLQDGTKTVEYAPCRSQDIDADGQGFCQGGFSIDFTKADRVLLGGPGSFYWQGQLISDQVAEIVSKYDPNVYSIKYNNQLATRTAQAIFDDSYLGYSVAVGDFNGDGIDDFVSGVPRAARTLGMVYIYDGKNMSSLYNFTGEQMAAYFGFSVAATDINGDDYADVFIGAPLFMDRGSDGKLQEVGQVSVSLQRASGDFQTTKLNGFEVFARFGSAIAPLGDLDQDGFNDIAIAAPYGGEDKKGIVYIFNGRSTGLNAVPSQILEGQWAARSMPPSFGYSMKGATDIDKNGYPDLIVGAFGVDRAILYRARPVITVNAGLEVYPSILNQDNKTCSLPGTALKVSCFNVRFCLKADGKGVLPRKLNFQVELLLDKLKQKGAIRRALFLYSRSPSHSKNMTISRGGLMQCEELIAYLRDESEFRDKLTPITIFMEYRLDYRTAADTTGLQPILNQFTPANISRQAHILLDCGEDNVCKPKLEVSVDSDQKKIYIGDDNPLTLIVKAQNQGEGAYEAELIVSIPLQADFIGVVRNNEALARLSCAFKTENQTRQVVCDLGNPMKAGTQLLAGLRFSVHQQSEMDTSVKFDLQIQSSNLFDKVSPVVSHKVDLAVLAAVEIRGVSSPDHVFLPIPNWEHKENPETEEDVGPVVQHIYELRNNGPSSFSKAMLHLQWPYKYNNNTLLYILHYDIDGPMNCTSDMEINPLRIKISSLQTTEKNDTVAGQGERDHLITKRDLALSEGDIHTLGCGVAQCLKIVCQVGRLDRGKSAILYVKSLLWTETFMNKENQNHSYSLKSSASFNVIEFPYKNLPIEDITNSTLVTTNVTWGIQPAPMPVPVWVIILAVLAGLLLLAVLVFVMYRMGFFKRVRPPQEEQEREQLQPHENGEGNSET
Chain of recombinant integrin αvβ3 (R&D Systems) (P05106 27-718, chain 2 of 2): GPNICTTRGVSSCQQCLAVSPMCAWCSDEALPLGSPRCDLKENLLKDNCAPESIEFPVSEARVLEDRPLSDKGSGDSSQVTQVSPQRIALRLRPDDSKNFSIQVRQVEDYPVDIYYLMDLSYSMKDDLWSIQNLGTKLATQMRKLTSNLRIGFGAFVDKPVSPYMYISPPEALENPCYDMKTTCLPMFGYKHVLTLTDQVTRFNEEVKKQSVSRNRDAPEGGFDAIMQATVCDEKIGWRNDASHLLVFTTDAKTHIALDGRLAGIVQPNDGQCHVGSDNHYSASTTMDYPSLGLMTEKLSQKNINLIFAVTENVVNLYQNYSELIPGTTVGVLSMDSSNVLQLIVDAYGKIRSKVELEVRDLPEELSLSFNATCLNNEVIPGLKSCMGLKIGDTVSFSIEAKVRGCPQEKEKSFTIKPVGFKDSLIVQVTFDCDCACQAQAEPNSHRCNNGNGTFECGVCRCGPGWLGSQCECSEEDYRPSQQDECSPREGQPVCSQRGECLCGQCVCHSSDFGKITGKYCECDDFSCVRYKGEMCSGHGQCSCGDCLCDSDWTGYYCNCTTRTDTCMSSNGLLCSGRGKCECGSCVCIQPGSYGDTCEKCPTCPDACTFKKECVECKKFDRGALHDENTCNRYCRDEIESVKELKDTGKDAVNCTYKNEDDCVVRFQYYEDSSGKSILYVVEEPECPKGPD
Chain of recombinant integrin αvβ5 (R&D Systems) (P06756 31-1048, chain 1 of 2): as the sequence (P06756 31-1048, chain 1 of 2) above
Chain of recombinant integrin αvβ5 (R&D Systems) (P18084 24-719, chain 2 of 2): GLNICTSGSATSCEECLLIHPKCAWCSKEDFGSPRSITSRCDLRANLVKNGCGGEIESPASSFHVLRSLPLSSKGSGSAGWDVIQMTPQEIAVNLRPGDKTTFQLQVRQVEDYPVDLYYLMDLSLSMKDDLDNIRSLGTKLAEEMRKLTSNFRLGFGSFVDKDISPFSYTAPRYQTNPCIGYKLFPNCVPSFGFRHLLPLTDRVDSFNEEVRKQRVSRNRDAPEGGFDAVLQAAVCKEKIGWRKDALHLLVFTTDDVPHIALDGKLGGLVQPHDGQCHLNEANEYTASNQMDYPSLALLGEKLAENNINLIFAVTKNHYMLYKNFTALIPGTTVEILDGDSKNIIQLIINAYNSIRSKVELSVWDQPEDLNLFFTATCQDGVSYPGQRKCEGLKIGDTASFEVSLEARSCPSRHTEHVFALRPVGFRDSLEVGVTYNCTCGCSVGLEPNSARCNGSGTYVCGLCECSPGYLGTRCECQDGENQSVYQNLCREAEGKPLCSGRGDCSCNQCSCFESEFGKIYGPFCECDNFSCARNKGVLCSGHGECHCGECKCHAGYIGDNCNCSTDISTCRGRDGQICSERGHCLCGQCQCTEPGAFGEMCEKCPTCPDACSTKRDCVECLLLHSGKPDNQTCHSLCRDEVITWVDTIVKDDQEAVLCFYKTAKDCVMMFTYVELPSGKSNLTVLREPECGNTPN
Chain of recombinant integrin αvβ1 (R&D Systems) (P06756 31-1048, chain 1 of 2): as the sequence (P06756 31-1048, chain 1 of 2) above
Chain of recombinant integrin αvβ1 (R&D Systems) (P05556 21-728, chain 2 of 2): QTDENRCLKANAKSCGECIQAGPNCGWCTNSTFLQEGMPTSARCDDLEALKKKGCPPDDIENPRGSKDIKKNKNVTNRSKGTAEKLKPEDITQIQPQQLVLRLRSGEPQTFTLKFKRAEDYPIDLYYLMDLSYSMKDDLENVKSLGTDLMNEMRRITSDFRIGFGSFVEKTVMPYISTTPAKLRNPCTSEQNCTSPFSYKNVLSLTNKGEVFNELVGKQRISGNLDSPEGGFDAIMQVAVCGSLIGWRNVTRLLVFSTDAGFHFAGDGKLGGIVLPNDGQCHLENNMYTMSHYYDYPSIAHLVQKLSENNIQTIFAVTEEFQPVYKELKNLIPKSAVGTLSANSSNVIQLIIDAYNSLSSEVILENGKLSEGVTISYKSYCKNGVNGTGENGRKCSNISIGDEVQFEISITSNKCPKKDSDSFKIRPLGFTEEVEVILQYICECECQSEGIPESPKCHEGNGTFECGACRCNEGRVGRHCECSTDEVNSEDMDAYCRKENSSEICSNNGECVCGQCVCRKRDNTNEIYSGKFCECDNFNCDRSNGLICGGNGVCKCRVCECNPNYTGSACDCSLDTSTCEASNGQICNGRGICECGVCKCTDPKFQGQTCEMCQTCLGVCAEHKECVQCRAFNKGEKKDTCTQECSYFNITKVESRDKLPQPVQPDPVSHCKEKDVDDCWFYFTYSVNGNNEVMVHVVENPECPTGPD

B1: C6-RGD3 Fab (Fab, V domains shown)
VH: QIQLVQSGPELKKPGETVKISCKASGYTFTDYSMHWVKQAPGKGLKWVARINTETGEPTFADDFRGRFAVSLETSASTAYLQINNLKNEDTATYFCAIFYYGRDSWGQGTTLTVSS
VL: DIVMTQSPSSLAVSAGEKVTMSCKSSQSLLGRGDLGRLKKNALAWYQQKPGQSPRLLIYWASTRESGVPDRFTGSGSGTDFTLTISSVQAEDLAVYYCKQSYNLLSFGAGTKLELK
B1: the binding result in experiment [1] is “binds”.

B2: C6-RGD3 antibody (mouse IgG2a) (antibody, V domains shown)
VH: QIQLVQSGPELKKPGETVKISCKASGYTFTDYSMHWVKQAPGKGLKWVARINTETGEPTFADDFRGRFAVSLETSASTAYLQINNLKNEDTATYFCAIFYYGRDSWGQGTTLTVSS
VL: DIVMTQSPSSLAVSAGEKVTMSCKSSQSLLGRGDLGRLKKNALAWYQQKPGQSPRLLIYWASTRESGVPDRFTGSGSGTDFTLTISSVQAEDLAVYYCKQSYNLLSFGAGTKLELK
Turning to B2, the binding result in experiment [2], in experiment [3] and in experiment [4] was “no binding” throughout.
